# Measurements: the supplement of paper PMC10065799, “High-throughput profiling of sequence recognition by tyrosine kinases and SH2 domains using bacterial peptide display” (eLife, 2023)
# Target: FGFR3 (UniProt P22607)
# Assay: phosphorylation enrichment, bacterial display (enrichment ratio); higher = better substrate or ligand; peptides without Tyr show the background
# 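Further: 11-residue human phosphosite peptides and single-mutation variants displayed on the E. coli surface, counted by deep sequencing, each peptide's frequency after selection divided by its frequency in the unselected input library; frequency after pTyr selection over input frequency; kinase dosed for 20-30% of maximal phosphorylation in three min.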
# FGFR3, sequence (P22607 whole entry, looked up): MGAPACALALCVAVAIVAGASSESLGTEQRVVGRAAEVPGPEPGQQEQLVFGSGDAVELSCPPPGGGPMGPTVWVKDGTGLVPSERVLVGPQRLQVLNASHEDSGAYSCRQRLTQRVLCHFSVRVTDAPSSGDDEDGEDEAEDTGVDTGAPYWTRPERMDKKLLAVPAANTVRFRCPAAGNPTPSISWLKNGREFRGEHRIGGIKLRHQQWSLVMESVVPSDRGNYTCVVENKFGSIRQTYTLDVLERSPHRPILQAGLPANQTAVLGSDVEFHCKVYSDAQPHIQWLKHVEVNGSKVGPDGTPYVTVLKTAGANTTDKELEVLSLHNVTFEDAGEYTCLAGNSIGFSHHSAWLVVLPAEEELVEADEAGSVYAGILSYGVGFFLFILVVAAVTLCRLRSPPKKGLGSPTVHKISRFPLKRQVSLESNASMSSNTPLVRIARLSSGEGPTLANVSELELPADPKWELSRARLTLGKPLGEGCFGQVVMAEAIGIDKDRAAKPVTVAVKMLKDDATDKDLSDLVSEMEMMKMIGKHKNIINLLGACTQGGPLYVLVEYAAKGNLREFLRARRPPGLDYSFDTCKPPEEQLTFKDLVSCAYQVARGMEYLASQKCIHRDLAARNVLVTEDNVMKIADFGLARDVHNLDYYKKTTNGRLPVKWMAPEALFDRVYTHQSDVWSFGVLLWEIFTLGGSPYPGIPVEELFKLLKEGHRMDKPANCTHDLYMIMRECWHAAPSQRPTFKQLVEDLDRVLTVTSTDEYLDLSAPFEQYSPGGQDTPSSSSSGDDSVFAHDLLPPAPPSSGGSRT
row,Sequence,phosphorylation enrichment
1,THPFLYLTLEI [MLH1_Y293_S295T],1.23
2,AEKPKYQISNI [TJP1_Y1602_N1605S],0.409
3,KRLFAYKMLMA [TMC2_Y209_Q205R_YF],0.683
4,GAVDTYCRHNF [HLA-DRB1_Y107_A102G_YF],0.528
5,VHFARYLAMNK [HARS1_Y138_P134H],0.771
6,DPLLTYQFPPK [LMNA_Y481_R482Q],1.17
7,WKESWYSMRKM [FGB_Y475_G472E],0.738
8,WCSNDYLGMSQ [ALAS2_Y199_R204Q],2.11
9,IVGLLYRLLTE [SETX_Y1978],0.937
10,PSDSGYSYETI [MAP1B_Y1921],0.688
11,RGFDTYFGFLL [ARSB_Y165_YF],3.25
12,YRKNIYNVKST [SYNE2_Y575],0.48
13,TTKVSYRASQP [MKI67_Y1737],0.334
14,LARDMCDKEFF [MET_Y1230_Y1230C_YF],1.06
15,CTIIHYNFMCN [TP53_Y234_T231I_YF],0.993
16,PSQRCYVYYYS [PTEN_Y174_R173C],1.8
17,GQRDLYSGLNQ [CD3E_Y199],0.583

row,Sequence,phosphorylation enrichment
1,PEPHIYAVADV [MYO9A_Y216_L211P],1.01
2,FEAMEYLESKQ [BTK_Y511_C506Y_YF],0.993
3,YSNVLYRPRGP [TMIGD2_Y197_A202P],0.525
4,YPKARYRWLVL [APTX_Y214_H215R],0.492
5,YKGKKYKPLDL [RPL35_Y78],0.45
6,TGDVQYRSSVR [FREM2_Y2158],0.397
7,LNTFHHAGVSA [POLR2A_Y1109_Y1109H],0.731
8,AQMAMYFWEMS [TRPM4_Y577_G582S],2.88
9,VTVLDYDKIGK [SYT1_Y365],0.515
10,TQNGVYSAANF [DDX5_Y535_YF],0.443
11,CYCSWYRGWAP [TIMP3_Y195_G190C],1.02
12,WQQQSYLDFGI [CTNNB1_Y30_S33F],0.757
13,TYGNLYGSRKQ [YIPF7_Y59_A54T],0.467
14,GPGSGYTNIMR [PKLR_Y564_R559G],0.47
15,HNGVSYFINLC [IGF2R_Y2024_YF],0.997
16,RKIMGYSIRTI [IDS_Y490_I485R],0.524

# Tested on: c-Src
# Assay: as above
row,Sequence,phosphorylation enrichment
1,THPFLYLTLEI [MLH1_Y293_S295T],0.548
2,AEKPKYQISNI [TJP1_Y1602_N1605S],0.36
3,KRLFAYKMLMA [TMC2_Y209_Q205R_YF],0.367
4,GAVDTYCRHNF [HLA-DRB1_Y107_A102G_YF],0.49
5,VHFARYLAMNK [HARS1_Y138_P134H],0.553
6,DPLLTYQFPPK [LMNA_Y481_R482Q],1.54
7,WKESWYSMRKM [FGB_Y475_G472E],0.672
8,WCSNDYLGMSQ [ALAS2_Y199_R204Q],1.06
9,IVGLLYRLLTE [SETX_Y1978],0.539
10,PSDSGYSYETI [MAP1B_Y1921],0.454
11,RGFDTYFGFLL [ARSB_Y165_YF],6.93
12,YRKNIYNVKST [SYNE2_Y575],0.474
13,TTKVSYRASQP [MKI67_Y1737],0.343
14,LARDMCDKEFF [MET_Y1230_Y1230C_YF],0.715
15,CTIIHYNFMCN [TP53_Y234_T231I_YF],0.445
16,PSQRCYVYYYS [PTEN_Y174_R173C],3.16
17,GQRDLYSGLNQ [CD3E_Y199],6.88

row,Sequence,phosphorylation enrichment
1,PEPHIYAVADV [MYO9A_Y216_L211P],3.72
2,FEAMEYLESKQ [BTK_Y511_C506Y_YF],0.427
3,YSNVLYRPRGP [TMIGD2_Y197_A202P],0.421
4,YPKARYRWLVL [APTX_Y214_H215R],0.399
5,YKGKKYKPLDL [RPL35_Y78],0.541
6,TGDVQYRSSVR [FREM2_Y2158],0.357
7,LNTFHHAGVSA [POLR2A_Y1109_Y1109H],1.17
8,AQMAMYFWEMS [TRPM4_Y577_G582S],2.52
9,VTVLDYDKIGK [SYT1_Y365],0.391
10,TQNGVYSAANF [DDX5_Y535_YF],5.43
11,CYCSWYRGWAP [TIMP3_Y195_G190C],3.7
12,WQQQSYLDFGI [CTNNB1_Y30_S33F],0.544
13,TYGNLYGSRKQ [YIPF7_Y59_A54T],7.59
14,GPGSGYTNIMR [PKLR_Y564_R559G],0.412
15,HNGVSYFINLC [IGF2R_Y2024_YF],0.668
16,RKIMGYSIRTI [IDS_Y490_I485R],0.666

# Target: Hck (UniProt P08631)
# Sequence (P08631 whole entry, looked up): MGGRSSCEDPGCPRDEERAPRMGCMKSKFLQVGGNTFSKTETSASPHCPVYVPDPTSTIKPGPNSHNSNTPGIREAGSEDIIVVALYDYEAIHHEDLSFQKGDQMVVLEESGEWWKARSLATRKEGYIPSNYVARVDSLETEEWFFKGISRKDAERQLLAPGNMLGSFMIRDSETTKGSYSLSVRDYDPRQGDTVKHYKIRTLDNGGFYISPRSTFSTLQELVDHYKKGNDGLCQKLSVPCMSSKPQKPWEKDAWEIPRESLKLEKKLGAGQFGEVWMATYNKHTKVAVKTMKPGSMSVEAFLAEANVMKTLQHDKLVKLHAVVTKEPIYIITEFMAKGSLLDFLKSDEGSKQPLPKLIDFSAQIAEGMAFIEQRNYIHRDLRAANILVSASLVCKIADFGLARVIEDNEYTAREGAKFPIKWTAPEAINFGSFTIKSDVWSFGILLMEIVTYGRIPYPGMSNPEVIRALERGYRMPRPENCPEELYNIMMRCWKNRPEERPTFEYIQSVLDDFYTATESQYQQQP
# Assay: as above
row,Sequence,phosphorylation enrichment
1,THPFLYLTLEI [MLH1_Y293_S295T],0.556
2,AEKPKYQISNI [TJP1_Y1602_N1605S],0.41
3,KRLFAYKMLMA [TMC2_Y209_Q205R_YF],0.455
4,GAVDTYCRHNF [HLA-DRB1_Y107_A102G_YF],0.509
5,VHFARYLAMNK [HARS1_Y138_P134H],0.506
6,DPLLTYQFPPK [LMNA_Y481_R482Q],0.986
7,WKESWYSMRKM [FGB_Y475_G472E],0.591
8,WCSNDYLGMSQ [ALAS2_Y199_R204Q],0.738
9,IVGLLYRLLTE [SETX_Y1978],0.596
10,PSDSGYSYETI [MAP1B_Y1921],0.577
11,RGFDTYFGFLL [ARSB_Y165_YF],6.53
12,YRKNIYNVKST [SYNE2_Y575],0.324
13,TTKVSYRASQP [MKI67_Y1737],0.326
14,LARDMCDKEFF [MET_Y1230_Y1230C_YF],0.653
15,CTIIHYNFMCN [TP53_Y234_T231I_YF],0.56
16,PSQRCYVYYYS [PTEN_Y174_R173C],1.03
17,GQRDLYSGLNQ [CD3E_Y199],12.4

row,Sequence,phosphorylation enrichment
1,PEPHIYAVADV [MYO9A_Y216_L211P],3.16
2,FEAMEYLESKQ [BTK_Y511_C506Y_YF],0.567
3,YSNVLYRPRGP [TMIGD2_Y197_A202P],0.69
4,YPKARYRWLVL [APTX_Y214_H215R],0.422
5,YKGKKYKPLDL [RPL35_Y78],0.404
6,TGDVQYRSSVR [FREM2_Y2158],0.357
7,LNTFHHAGVSA [POLR2A_Y1109_Y1109H],0.575
8,AQMAMYFWEMS [TRPM4_Y577_G582S],1.18
9,VTVLDYDKIGK [SYT1_Y365],0.648
10,TQNGVYSAANF [DDX5_Y535_YF],8.3
11,CYCSWYRGWAP [TIMP3_Y195_G190C],1.01
12,WQQQSYLDFGI [CTNNB1_Y30_S33F],0.441
13,TYGNLYGSRKQ [YIPF7_Y59_A54T],13.2
14,GPGSGYTNIMR [PKLR_Y564_R559G],0.444
15,HNGVSYFINLC [IGF2R_Y2024_YF],0.618
16,RKIMGYSIRTI [IDS_Y490_I485R],0.624

# Target: EPHB2 (UniProt P29323)
# Sequence (P29323 whole entry, looked up): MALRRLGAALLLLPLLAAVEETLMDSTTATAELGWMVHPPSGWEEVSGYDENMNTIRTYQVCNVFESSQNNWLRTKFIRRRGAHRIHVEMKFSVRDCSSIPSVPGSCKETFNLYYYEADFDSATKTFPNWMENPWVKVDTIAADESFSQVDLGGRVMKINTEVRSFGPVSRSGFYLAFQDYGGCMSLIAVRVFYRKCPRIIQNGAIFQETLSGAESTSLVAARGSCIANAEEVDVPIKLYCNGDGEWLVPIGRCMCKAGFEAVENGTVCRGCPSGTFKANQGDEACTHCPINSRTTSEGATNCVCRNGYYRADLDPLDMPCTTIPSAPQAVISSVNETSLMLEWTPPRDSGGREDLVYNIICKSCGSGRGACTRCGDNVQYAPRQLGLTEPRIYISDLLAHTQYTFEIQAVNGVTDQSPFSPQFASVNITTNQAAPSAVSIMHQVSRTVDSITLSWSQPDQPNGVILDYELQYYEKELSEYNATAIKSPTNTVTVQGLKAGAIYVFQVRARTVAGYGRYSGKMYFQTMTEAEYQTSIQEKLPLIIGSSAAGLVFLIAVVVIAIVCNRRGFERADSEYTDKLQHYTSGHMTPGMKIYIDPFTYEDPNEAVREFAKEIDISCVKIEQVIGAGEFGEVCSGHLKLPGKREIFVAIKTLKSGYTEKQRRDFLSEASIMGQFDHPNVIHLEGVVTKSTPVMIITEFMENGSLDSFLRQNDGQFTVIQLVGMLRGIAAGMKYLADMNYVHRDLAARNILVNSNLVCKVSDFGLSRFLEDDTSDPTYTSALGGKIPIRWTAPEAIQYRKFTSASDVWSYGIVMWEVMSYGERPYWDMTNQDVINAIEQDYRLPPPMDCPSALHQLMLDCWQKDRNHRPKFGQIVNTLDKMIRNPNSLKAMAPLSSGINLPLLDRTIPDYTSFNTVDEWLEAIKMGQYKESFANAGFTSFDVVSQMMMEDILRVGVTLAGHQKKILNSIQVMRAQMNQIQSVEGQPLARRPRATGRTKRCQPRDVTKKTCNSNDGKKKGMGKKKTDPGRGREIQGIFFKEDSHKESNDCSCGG
# Assay: as above
row,Sequence,phosphorylation enrichment
1,THPFLYLTLEI [MLH1_Y293_S295T],0.889
2,AEKPKYQISNI [TJP1_Y1602_N1605S],0.376
3,KRLFAYKMLMA [TMC2_Y209_Q205R_YF],0.528
4,GAVDTYCRHNF [HLA-DRB1_Y107_A102G_YF],0.524
5,VHFARYLAMNK [HARS1_Y138_P134H],0.555
6,DPLLTYQFPPK [LMNA_Y481_R482Q],1.27
7,WKESWYSMRKM [FGB_Y475_G472E],0.669
8,WCSNDYLGMSQ [ALAS2_Y199_R204Q],0.944
9,IVGLLYRLLTE [SETX_Y1978],0.672
10,PSDSGYSYETI [MAP1B_Y1921],0.467
11,RGFDTYFGFLL [ARSB_Y165_YF],4.31
12,YRKNIYNVKST [SYNE2_Y575],0.423
13,TTKVSYRASQP [MKI67_Y1737],0.337
14,LARDMCDKEFF [MET_Y1230_Y1230C_YF],0.816
15,CTIIHYNFMCN [TP53_Y234_T231I_YF],0.553
16,PSQRCYVYYYS [PTEN_Y174_R173C],0.556
17,GQRDLYSGLNQ [CD3E_Y199],2.35

row,Sequence,phosphorylation enrichment
1,PEPHIYAVADV [MYO9A_Y216_L211P],2.18
2,FEAMEYLESKQ [BTK_Y511_C506Y_YF],0.682
3,YSNVLYRPRGP [TMIGD2_Y197_A202P],0.576
4,YPKARYRWLVL [APTX_Y214_H215R],0.553
5,YKGKKYKPLDL [RPL35_Y78],0.391
6,TGDVQYRSSVR [FREM2_Y2158],0.423
7,LNTFHHAGVSA [POLR2A_Y1109_Y1109H],0.76
8,AQMAMYFWEMS [TRPM4_Y577_G582S],1.05
9,VTVLDYDKIGK [SYT1_Y365],0.541
10,TQNGVYSAANF [DDX5_Y535_YF],1.94
11,CYCSWYRGWAP [TIMP3_Y195_G190C],0.632
12,WQQQSYLDFGI [CTNNB1_Y30_S33F],0.564
13,TYGNLYGSRKQ [YIPF7_Y59_A54T],0.74
14,GPGSGYTNIMR [PKLR_Y564_R559G],0.398
15,HNGVSYFINLC [IGF2R_Y2024_YF],0.822
16,RKIMGYSIRTI [IDS_Y490_I485R],0.556
